Experimental data taken from patent US10704056B2, “Constitutively active ABA receptor mutants” (The Regents of the University of California, priority 2011, dated 2020).

Experiments:
aba2-1 mutant seeds = experiment: Germination of aba2-1 background seeds on paclobutrazol or NaCl; type: in vivo, Arabidopsis; settings: 35S-driven transgene, germination 72 hours
Source text: As a further test of the ability of PYL2^CA3 to activate ABA signaling in vivo, we examined the ability of this allele to revert phenotypes caused by ABA deficiency, reasoning that effective activation of the ABA pathway should suppress phenotypes observed in the aba2 mutant. […] To test this, we examined the germination of various genotypes on paclobutrazol, an inhibitor of GA biosynthesis. Wild-type seed germination is blocked by paclobutrazol treatment but aba2 mutants germinate due to defects in ABA-induced seed dormancy. We also examined the germination of various genotypes in the presence of NaCl, which, like paclobutrazole, inhibits seed germination in an ABA- and aba2-dependent manner (Gonzalez-Guzman M. et al. (2002) Plant Cell 14(8):1833-1846; Leon-Kloosterziel K M, et al. (1996) Plant J 10 (4):655-661). […] Thus, expression of PYL2^CA3 in developing seeds is sufficient to activate an ABA-dependent physiological process despite the depleted ABA levels present in the aba2 background.
Germination tests on paclobutrazol (Wako Chemicals, Japan) and NaCl were conducted as following. Columbia, aba2-1, aba2-1; 35S::GFP-PYL2 and aba2-1; 35S::GFP-PYL2″^3 seeds were surface sterilized and plated onto ⅓ MS agar media containing 25, 50 or 100 μM paclobutrazol or 0, 50, 200, 250 mM NaCl. Control wells contained ⅓ MS agar and 0.1% DMSO, the carrier solvent for paclobutrazol. The seeds were stratified for four days in darkness and then transferred to continuous illumination at room temperature (23° C.). Germination was assayed after 72 hours; seeds showing radicals at least ½ seed length or greater were scored as positive. Each experiment was performed in triplicate; experiments were performed on seeds that were ˜6-months post-harvest.

HAB1 = experiment: In vitro PP2C phosphatase (pNPP) receptor activation assay with HAB1; type: biochemical, Arabidopsis; settings: 600 nM GST-HAB1, 0-4800 nM receptor, no ABA
Experimental: Recombinant receptor proteins were produced as follows: Coding sequences were cloned into pET28 yielding 6×HIS (SEQ ID NO:173) fusions proteins and transformed into E. coli expression strain BL21. […]. Cells were stored at −80° C. before purification. After thawing, cells were sonicated on ice five times for 30 sec with 30 sec resting intervals. A cleared lysate was obtained after centrifugation at 12,000×g for 10 min and applied to 1 ml of Ni-NTA column (Qiagen) and washed with 20 column volumes of Buffer A containing 30 mM imidazole. Bound protein was eluted with 10 ml of Buffer A with 250 mM imidazole. The elutate was dialyzed against TBS. The purified recombinant proteins were then used together with recombinant phosphatases in receptor assays. In these assays, receptor activity is indicated by inhibition of phosphatase activity, as inferred from initial reaction velocities for GST-HAB1 mediated hydrolysis of the synthetic phosphatase substrate pNPP. Reactions contained 600 nM GST-HAB1 and either 0, 600, 1200, 2400 or 4800 nM 6×His-PYR1 or variants in a reaction buffer consisting of 33 mM Tris-OAc, pH 7.9, 66 mM KOAc, 0.1% BSA, 25 mM Mn(OAc)2, 50 mM pNPP. To infer the level of receptor activation with respect to fully activated wild type receptor, control reactions were also conducted using saturating levels of (+)-ABA (10 μM), and 600 nM wild type PYR1 and HAB1. Immediately after mixing proteins and substrates, reactions were monitored for hydrolysis of pNPP at A405 at ˜10 second intervals over 20 minutes using a Wallac plate reader. Reaction progressions were plotted, initial velocities calculated and converted to specific activities using a standard curve for 4-nitrophenol made in the same buffer system volumes/plate reader used for enzymatic reaction measurements. The values shown are expressed as %-control phosphatase activity levels as measured in the absence of receptor protein. The average specific activity level of GST-HAB1 utilized in our experiments was 4000 μmol/min/mg, when assayed on the phosphatase substrate pNPP in the absence of PYR1 or other receptors, as described using the methods above.
Full length ABI1 and ABI2 were cloned into a modified pSUMO vector (LifeSensors Inc, USA) vector yielding 6×His-SUMO fusion proteins; GST-HAB1 was expressed and purified as previously described (Park et al., 2009). Mutant receptors were cloned into pET28 yielding 6×His-fusion proteins. […]. The cultures were pre-incubated 2 hours at 30° C. and, for PP2C expression, media was supplemented with 4 mM MnCl2 one hour after inoculation. After pre-incubation, IPTG was added (1 mM) and cells were induced at 15° C. for 16 hours, after which they were collected by centrifugation, resuspended in 5 ml Buffer A (50 mM NaH2PO4, 300 mM NaCl) +10 mM imidazole, pH 8.0 and stored at −80° C. For purification, cells were thawed, sonicated on ice (60 seconds) and a cleared lysate was then applied a 1 ml-bed volume column of Ni-NTA (Qiagen, USA), washed with 20 column volumes of Buffer A+30 mM imidazole and bound protein eluted with 1 ml of Buffer A+250 mM imidazole. For receptors, the elutate was dialyzed against TBS and for PP2Cs, fusion proteins were desalted by passage over a Sephadex G50 column.
The purified receptors and phosphatases were then used in receptor assays where receptor activation is indicated by inhibition of phosphatase activity, as inferred from initial reaction velocities for PP2C-mediated hydrolysis of the synthetic phosphatase substrate pNPP in reactions containing 600 nM PP2C and either 0, 600, 1200, 2400 or 4800 nM receptor. The receptor assay buffer consisted of 33 mM Tris-OAc, pH 7.9, 66 mM KOAc, 0.1% BSA, 25 mM Mn(OAc)2, 0.1%13-ME and 50 mM pNPP. Immediately after mixing proteins and substrates, reactions were monitored for hydrolysis of pNPP at A405 at ˜2 minutes intervals using a Wallac plate reader. […]

B1: PYL2^CA3: PYL2 mutant (H65P, V87F, F165V); expressed in plants as 35S-driven GFP fusion (protein)
chain: HHHHHHMSSSPAVKGLTDEEQKTLEPVIKTYHQFEPDPTTCTSLITQRIHAPASVVWPLIRRFDNPERYKPFVKRCRLISGDGDVGSVREVTFISGLPASTSTERLEFVDDDHRVLSFRVVGGEHRLKNYKSVTSVNEFLNQDSGKVYTVVLESYTVDIPEGNTEEDTKMVVDTVVKLNLQKLGVAATSAPMHDDE
For B1, the “NaCl resistance of aba2 mutant seed germination” value (aba2-1 mutant seeds) was “suppressed”, the “paclobutrazol resistance of aba2 mutant seed germination” value (aba2-1 mutant seeds) was “suppressed” and the “basal receptor activity (inhibition of HAB1 phosphatase activity in the absence of ABA)” value (HAB1) was “highly activated in the absence of ABA”.
